According to the supplement of paper PMC12042874:
± gives the uncertainty stated by the source.

Test: amyloid nucleation score (Sup35N fusion, yeast selection) (log enrichment); library NNK2; higher = more nucleation; inactive = no reads after selection
Outline: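 After 24 hours of induction with 100 μM copper sulfate, psi-negative yeast expressing peptides of 20 random codons fused to Sup35N were grown for 7 days at 30°C on medium lacking adenine and uracil. Input and output plasmid inserts were sequenced with Illumina, and sequences with under 100 input reads were discarded. Scores for nucleation are the DiMSum log enrichment of output over input reads, centred on the mode score of non-aggregating sequences.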

| Substance | amyloid nucleation score |
| --- | --- |
| QKMRFYWLVMMAV | -0.283 ± 1 |
| QKTWEIANCFAELEKKIRQG | 2.4 ± 0.069 |
| QLENMCFFSPLQTYMLDRNW | -1.47 ± 0.41 |
| QLESKRWWDIGWCSYLAGGW | 4.92 ± 0.068 |
| QLNIHLMNLRI | 9.23 ± 0.056 |
| QLNVIDIYTSGWISFP | -1.06 ± 0.26 |
| QLPSR | -0.243 ± 0.31 |
| QLRRFERMLSLVM | 1.31 ± 0.3 |
| QLVMCGHEDQYIRSDRSERN | -0.112 ± 0.25 |
| QLVPRHNGTAKGCSGPLTRV | 0.402 ± 0.26 |
| QLVYCVNFVFFARVTNRSAR | 3.95 ± 0.06 |
| QMETSFL | -1.58 ± 1.1 |
| QMICFHSWLGGSSLTVFHHC | 3.84 ± 0.12 |
| QMQYFKATYSI | -0.613 ± 0.44 |
| QNACH | -0.011 ± 1.1 |
| QNECKIMTLIFCLLRSKQYY | 0.005 ± 0.65 |
| QNEVSLEVVFVKEGVGFDRL | -0.665 ± 0.76 |
| QNTMALKHNICPEHSSMWNS | 2.64 ± 0.066 |
| QPCLHAMV | 0.319 ± 0.56 |
| QPGSGFSVAPVQVKHNTVCR | 0.397 ± 0.33 |
| QPPMRVYSLVMLCDAVSSKD | 0.339 ± 0.56 |
| QPSFPTHCQDRFVEECINEV | inactive |
| QRADQWVSRKLRPSIARL | 1.52 ± 0.34 |
| QRCRFPYDTGSSTHSWTEVG | 0.614 ± 0.35 |
| QRVMHTYYVS | 0.073 ± 0.24 |

| Substance | amyloid nucleation score |
| --- | --- |
| QSCWIFSGHSE | -1.03 ± 0.44 |
| QSKMH | -0.321 ± 0.19 |
| QSMSNACFVMGTRCITKRAA | 4.633 ± 0.044 |
| QSPNHVHSLRPGLDQLSALP | -0.08 ± 0.39 |
| QSRSMNRHNWHTFMLWAWER | -0.695 ± 0.61 |
| QSVGATNLLG | 0.501 ± 0.34 |
| QSWSRQSATGPWTLVCQRRP | 0.69 ± 0.51 |
| QVLCIVLDTSMIGTKACLGV | 0.325 ± 0.57 |
| QVLTMNRLWVVPPAHYCVVG | 0.84 ± 0.53 |
| QVTSNRSTGRRYILNQMC | -0.337 ± 1.1 |
| QYQKIIWISCSIPMQMTISA | -0.097 ± 1.1 |
| QYWTNRCKDWERVSRKPLKL | inactive |
| QYYELWSFTDWVWDLWGVQS | -0.568 ± 0.63 |
| RADGSFMKLLA | -0.628 ± 0.5 |
| RAEVNA | 0.517 ± 0.26 |
| RAGFSSAPLVEGRSLTQRCR | inactive |
| RCELSRRGTSLRTWRWARNG | 1.46 ± 0.17 |
| RCFIHRGGLLVVLV | -0.98 ± 0.54 |
| RCFNLWSNSVLFNCSVCSAE | 7.414 ± 0.065 |
| RCGSDLCDTFWVTLRGYGEV | 0.595 ± 0.43 |
| RCKWVRGVSRMPNHWN | 0.779 ± 0.4 |
| RCLPISTIVF | 2.43 ± 0.16 |
| RCLSYFGLKLLRVSRLFIDL | 0.034 ± 0.28 |
| RCRHLLSMPLPVSFEMDGRG | 2.85 ± 0.099 |
| RCRILA | 2.51 ± 0.1 |

| Substance | amyloid nucleation score |
| --- | --- |
| RCSTGRVFSSLDEVLLSRWG | 4.64 ± 0.048 |
| RCVWINVGCSPILIGYAAHY | 8.728 ± 0.03 |
| RCYINFGIHGLWMLHVCFWG | -0.849 ± 1.1 |
| RDRFS | 0.248 ± 0.61 |
| RDSFRDTAYHELVYFTKNFR | inactive |
| RECFLNPWSVYVRFS | -0.086 ± 0.44 |
| REDNPRADTCMAYGV | 1.14 ± 0.35 |
| REGYNAIMYDV | -1.27 ± 0.62 |
| RELCVFASCAFVGLLVESWK | 6.16 ± 0.078 |
| REVYWLMCTA | 0.747 ± 0.47 |
| REWEVCGDCLVGNNGWFRWV | 0.409 ± 0.47 |
| RFAMFMVVRWGWDHKYEFLR | 0.353 ± 0.33 |
| RFCSMSLSWNYDSC | 5.5 ± 0.079 |
| RFDPNTAWNLTFSSSRCVAG | 0.91 ± 0.27 |
| RFEMRSGLKDKLDKVGS | inactive |
| RFFCYKSYMLLECLRIVSVC | -0.853 ± 0.78 |
| RFKSNNRPCWHCHPLLGFRT | 1.06 ± 0.43 |
| RFNTCLDS | -0.005 ± 0.29 |
| RFQELMTK | 0.626 ± 0.8 |
| RFRHNKWYCLLRLAG | 0.956 ± 0.33 |
| RFTFFAGAS | 0.367 ± 0.21 |
| RFVKSRRATILSNDG | -0.198 ± 0.39 |
| RFWDQACQAFMSSMVEGPVD | -0.548 ± 1.1 |
| RFWPWLLVRPNFPMLSQ | 0.216 ± 0.37 |
| RFWSMETEHDIIALVFASSV | 0.096 ± 0.49 |

| Substance | amyloid nucleation score |
| --- | --- |
| RFYVGTIFSPYILLSSTECM | 3.82 ± 0.06 |
| RGDHLGCSII | -0.101 ± 0.79 |
| RGDRSWGVRSCSRYDAAIAG | 1.71 ± 0.38 |
| RGFRIVLINRCVILRSV | 0.198 ± 0.26 |
| RGLRDLMCLRPLRLASSQPP | inactive |
| RGMVE | 0.587 ± 0.53 |
| RGRAFGPEIRNKSLGLTYPV | 0.282 ± 0.21 |
| RGRCNVVSSLTFTIRSLWTV | 1.59 ± 0.13 |
| RGSNVGMRDLAYRPHSGQMW | 1.68 ± 0.56 |
| RGSYMVPWHVERIIGNSRVS | -0.899 ± 0.23 |
| RGVLVEFYGAMENISWSTYW | -0.497 ± 0.76 |
| RGVVWRR | 0.23 ± 0.63 |
| RGWCFWASPGRR | 0.2 ± 0.26 |
| RGWRAGMYFACF | 0.656 ± 0.42 |
| RHDLWAPRTERMMVYMCTAA | 0.544 ± 0.26 |
| RHGVVLSNVSKSVVSVPGAK | -0.409 ± 0.76 |
| RHHGVRIYMRNFGNVYVYIR | 3.85 ± 0.11 |
| RHICIFMNRMSYMDLWPALL | inactive |
| RHKMWVFRT | inactive |
| RHMSTVKTLSEGLNLESGLI | -0.519 ± 0.74 |
| RHRRHLNHYAPTSSMIWTYS | 0.258 ± 0.65 |
| RHTFLVSAGYKERMVGMTSG | -1.12 ± 0.63 |
| RIDRFLFASGHEGYAVN | 4.507 ± 0.033 |
| RIENFVWC | -0.688 ± 0.63 |
| RIGSGTGRPWN | -1.02 ± 0.39 |

| Substance | amyloid nucleation score |
| --- | --- |
| RIGTFWRGQDKLDVFKYGVV | -0.236 ± 0.37 |
| RIGVSSFVEEHSRIGLGRAP | 5.57 ± 0.066 |
| RIHYYVVLCLGSRRSTFGLR | -0.171 ± 0.28 |
| RIKYG | 4.05 ± 0.065 |
| RIRSCTLMWT | 0.807 ± 0.22 |
| RITFV | -0.64 ± 0.76 |
| RITIAQHTDSKGDA | -0.01 ± 0.61 |
| RIVFHYVCTVLR | -0.964 ± 0.76 |
| RIYGILVSFYCIVYDGFSGG | 1.9 ± 0.082 |
| RKAFIHVDKRLDSSIGTRSG | 0.321 ± 0.41 |
| RKCSSVLRGHTVQDVHFFSA | -0.056 ± 0.56 |
| RKGCWSL | 1.65 ± 0.34 |
| RKRRLMYLSGDNTQPFARLY | -0.686 ± 1.1 |
| RKSVWYCDIFIIEYPDFSYS | 2.07 ± 0.1 |
| RKVSSARNSVIATSMSNNSV | -1.61 ± 0.54 |
| RKVVRLSHFLMCDCSRKPRR | -0.072 ± 0.76 |
| RKYNGCSFQHYGLSVRTRSL | 2.37 ± 0.2 |
| RLCTVRSP | 1.55 ± 0.14 |
| RLDGSG | 0.587 ± 0.2 |
| RLDSMMVAYNAT | 0.724 ± 0.81 |
| RLGEWGFNRLVWFNKEAVCS | 0.495 ± 0.47 |
| RLGPSSWSWHL | 1.52 ± 0.29 |
| RLKVIFRSLFHLLRAVRGSH | -1.36 ± 0.75 |
| RLLAVPLVRFRC | -0.23 ± 0.79 |
| RLLRLDQKQIMVRSSSAVLR | -0.107 ± 0.32 |

| Substance | amyloid nucleation score |
| --- | --- |
| RLLSGCLFGGSRA | -0.623 ± 0.76 |
| RLMDGYSSV | 0.548 ± 0.29 |
| RLNCLSTWIVYCGPGYVSSV | -0.571 ± 0.45 |
| RLPAFSRFG | -0.452 ± 0.37 |
| RLQDNRDVATGH | inactive |
| RLQSSRSGVKAL | 0.208 ± 0.8 |
| RLRDDENIGIFMTF | -1.15 ± 1 |
| RLSRCL | 4.23 ± 0.055 |
| RLSRYFLRFWWAYDYDSN | 0.101 ± 0.54 |
| RLSSYILAIYSNRAKYF | 0.412 ± 0.5 |
| RLSVAFRRVRDRYVLLIFLP | 0.548 ± 0.55 |
| RLSVTLL | -0.157 ± 0.24 |
| RLSWLLLKFNDQVWRLIGAG | 4.04 ± 0.054 |
| RLVTWGISQNRLAQLY | -0.001 ± 0.33 |
| RLVWWVIWIPSKCMGADKNW | -0.029 ± 0.8 |
| RLYVTSYIY | 3.26 ± 0.098 |
| RMCVWHMLVIGVRGKTGATR | 3.01 ± 0.11 |
| RMDTGNLYVFLMKCFNMAYA | 5.2 ± 0.091 |
| RMFVLLNRPNGLSCKGMFRG | 0.446 ± 0.64 |
| RMKMDNIPFEIYVFTVTLLD | inactive |
| RMKVDTLIWTPDWMEFVSII | -0.824 ± 1.1 |
| RMLLKLTHFALSVKGMQSRY | 0.417 ± 0.38 |
| RMNSYKLSKVYNT | -0.225 ± 1 |
| RMNYTTEIGHSGFSGNIWTG | -0.45 ± 0.78 |
| RMPGWY | inactive |

| Substance | amyloid nucleation score |
| --- | --- |
| RMRLSYWHCISLGLVLLRPI | 0.298 ± 0.39 |
| RMSVWNNECTWTSSVSVHPK | 2.37 ± 0.1 |
| RNLGIHKSLFNSAYARAWAV | -0.771 ± 0.49 |
| RNLYGHISVIFCGDNFDGSC | 7.15 ± 0.077 |
| RNNRLTLVRVSFDVQCEPMV | 0.468 ± 0.46 |
| RNPVTSIVQVHDKMGRRSKS | inactive |
| RNQNLLWNVSGIAFNKMRRK | 4.02 ± 0.093 |
| RNSPVSLDVVSI | 0.046 ± 0.49 |
| RPCQGLDTSVRCVLMMRYYR | 4.36 ± 0.046 |
| RPLASSWAQY | 1.65 ± 0.21 |
| RPPSIYC | -0.477 ± 0.49 |
| RPRILYLLLFLYNHFLTSYK | -1.08 ± 1 |
| RPSFKKYFAGSSDTNGSGVC | -0.513 ± 0.64 |
| RQALVRILFSSSRIGGM | -0.857 ± 0.44 |
| RQANFAQDPTSIVPVYMYLR | 2.35 ± 0.074 |
| RQARSCIVGDGSWRGCLIKV | 1.11 ± 0.26 |
| RQEFNCIASCRF | 2.12 ± 0.091 |
| RQLAFFLIYPHGASVTYWAP | -0.956 ± 1.1 |
| RQLLTKCLCASTGGFIFSWD | 0.792 ± 0.8 |
| RQMMWRYEE | 0.3 ± 0.32 |
| RQSIEISYLYISFGHKYR | 5.98 ± 0.083 |
| RRCEGCN | -0.299 ± 1 |
| RRDHHMPPITPGCFRLYWRI | 0.237 ± 1 |
| RRGIASILGHYRGTKMTGFD | 0.135 ± 0.56 |
